The text below walks through data of publication PMC4869107, “In vitro flow cytometry-based screening platform for cellulase engineering” (Scientific Reports, 2016).

The subject of the data set is T1, Cc1cc(=O)oc2cc(O[C@@H]3O[C@H](CO)[C@@H](O[C@@H]4O[C@H](CO)[C@@H](O)[C@H](O)[C@H]4O)[C@H](O)[C@H]3O)ccc12.
T1 construct: 604 residues, ~69 kDa; expressed in E. coli BL21 Gold (DE3)
In words: purified protein. The class given is biochemical, uncultured bacterium. As to conditions: potassium phosphate pH 7.2, 30 °C (general assay; kinetics by cited protocol).

In general, kcat refers to the number of substrate molecules converted per active site and unit of time at saturation. In general, kcat/Km refers to the turnover number divided by the Michaelis constant. As for CelA2 (CelA2-WT) (uncultured bacterium), the Km was 48.37 (±2.43) μM, the kcat amounted to 0.00183 ± 0.00035 s⁻¹ and the kcat/Km was 33.3 M⁻¹ s⁻¹.
In the same order, the values of “CelA2 (CelA2-WT) (uncultured bacterium; H288F)” are 8.95 (±1.62) μM, 0.00833 ± 0.000367 s⁻¹ and 933 M⁻¹ s⁻¹.
Taken in the same sequence, the figures for “CelA2 (CelA2-WT) (uncultured bacterium; H288F/N273D/N468S)” were 9.66 (±1.19) μM, 0.0253 ± 0.000767 s⁻¹ and 2620 M⁻¹ s⁻¹.
